Values quoted from earlier work as cited in publication PMC9028781.

Tests used:
[1] = biological target: YopB (nanodisc-embedded) (Yersinia pestis) (UniProt Q06114)
[2] = biological target: Substance P (Homo sapiens) (UniProt P20366)
Chain of Substance P (Homo sapiens) (P20366 whole entry, looked up): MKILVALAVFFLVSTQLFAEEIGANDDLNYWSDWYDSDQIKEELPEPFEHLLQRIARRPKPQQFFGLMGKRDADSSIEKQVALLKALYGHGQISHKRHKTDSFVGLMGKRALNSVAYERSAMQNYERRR

Chain of LcrV-EGFP (P0C7U7 whole entry): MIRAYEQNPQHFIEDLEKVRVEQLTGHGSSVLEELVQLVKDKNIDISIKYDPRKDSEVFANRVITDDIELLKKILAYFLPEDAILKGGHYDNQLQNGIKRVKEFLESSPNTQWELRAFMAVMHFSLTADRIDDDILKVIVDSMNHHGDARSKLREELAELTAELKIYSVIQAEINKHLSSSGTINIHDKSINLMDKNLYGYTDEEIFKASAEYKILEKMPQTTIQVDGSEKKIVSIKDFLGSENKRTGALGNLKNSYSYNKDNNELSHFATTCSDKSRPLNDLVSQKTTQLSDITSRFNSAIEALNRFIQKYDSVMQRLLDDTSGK
Chain of YopB (nanodisc-embedded) (Yersinia pestis) (Q06114 whole entry): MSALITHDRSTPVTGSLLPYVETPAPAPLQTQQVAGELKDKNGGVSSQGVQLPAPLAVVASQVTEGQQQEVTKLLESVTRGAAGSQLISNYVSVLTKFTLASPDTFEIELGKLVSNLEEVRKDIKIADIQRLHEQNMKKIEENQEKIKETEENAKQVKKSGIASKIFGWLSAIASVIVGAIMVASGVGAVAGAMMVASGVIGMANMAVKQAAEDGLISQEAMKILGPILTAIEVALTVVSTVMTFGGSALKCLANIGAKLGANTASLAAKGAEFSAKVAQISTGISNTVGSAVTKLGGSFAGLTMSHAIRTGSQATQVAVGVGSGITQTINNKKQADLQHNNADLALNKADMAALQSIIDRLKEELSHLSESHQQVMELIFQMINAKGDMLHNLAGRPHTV
Chain of Neurokinin-1 receptor (NK1R, nanodisc-embedded) (P25103 whole entry): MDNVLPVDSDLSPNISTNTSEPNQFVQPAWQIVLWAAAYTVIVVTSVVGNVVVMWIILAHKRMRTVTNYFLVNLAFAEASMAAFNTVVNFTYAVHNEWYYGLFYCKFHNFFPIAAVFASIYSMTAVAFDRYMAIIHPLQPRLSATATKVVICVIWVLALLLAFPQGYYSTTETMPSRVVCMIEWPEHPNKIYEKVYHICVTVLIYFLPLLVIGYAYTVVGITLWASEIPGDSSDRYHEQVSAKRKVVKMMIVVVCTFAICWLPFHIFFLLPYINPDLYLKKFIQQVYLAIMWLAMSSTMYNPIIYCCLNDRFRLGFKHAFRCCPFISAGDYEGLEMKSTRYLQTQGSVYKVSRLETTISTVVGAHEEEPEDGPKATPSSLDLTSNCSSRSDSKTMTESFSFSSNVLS

Substance	Kd [1] [nM]	Kd [2] [nM]
LcrV-EGFP (from UniProt P0C7U7)	20	–
Neurokinin-1 receptor (NK1R, nanodisc-embedded) (from UniProt P25103)	–	83
